# According to patent US20250188166A1:
# Legend:
# [1] = target: native IL-18 wild-type (SEQ ID NO: 1) (human) (UniProt Q14116)
# [2] = target: IL-18 polypeptide SEQ ID NO: 31 (C38A, C76A, C127A) (human) (UniProt Q14116)
# [3] = target: Composition C (Trastuzumab/Herceptin conjugated to IL-18 polypeptide SEQ ID NO: 30) (human)
# [4] = target: Composition A (LZM-009 conjugated to IL-18 polypeptide SEQ ID NO: 30) (human) (UniProt Q14116)
# [5] = target: Composition D (LZM-009 conjugated to IL-18 polypeptide SEQ ID NO: 31) (human) (UniProt Q14116)
# [6] = target: IL-18 polypeptide C153 (human) (UniProt Q14116); assay: cell-based or functional assay
# [7] = target: IL-18 polypeptide SEQ ID NO: 38 (E06K) (human) (UniProt Q14116); assay: cell-based or functional assay
# [8] = target: IL-18 polypeptide C161 (human) (UniProt Q14116); assay: cell-based or functional assay
# [9] = target: IL-18 polypeptide C150 (human) (UniProt Q14116); assay: cell-based or functional assay
# [10] = target: IL-18 polypeptide SEQ ID NO: 5 (E6K, V11I, C38A, K53A, T63A, C68A, C76A, C127A, M86C) (human) (UniProt Q14116); assay: cell-based or functional assay
# [11] = target: IL-18 polypeptide SEQ ID NO: 6 (E6K, V11I, C38A, K53A, T63A, C68A, C76A, C127A, D98C) (human) (UniProt Q14116); assay: cell-based or functional assay
# [12] = target: IL-18 polypeptide C159 (human) (UniProt Q14116); assay: cell-based or functional assay
# [13] = target: native IL-18 wild-type (SEQ ID NO: 1) (human) (UniProt Q14116); assay: cell-based or functional assay
# [14] = target: IL-18 polypeptide C154 (human) (UniProt Q14116); assay: cell-based or functional assay
# [15] = target: IL-18 polypeptide C167 (human) (UniProt Q14116); assay: cell-based or functional assay
# [16] = target: IL-18 polypeptide SEQ ID NO: 4 (E6K, C38A, K53A, C68A, M86C) (human) (UniProt Q14116); assay: cell-based or functional assay
# [17] = target: IL-18 polypeptide SEQ ID NO: 54 (E06K, K53A, C38S, C68S, C76S, C127S, K70C) (human) (UniProt Q14116); assay: cell-based or functional assay
# [18] = target: IL-18 polypeptide C165 (human) (UniProt Q14116); assay: cell-based or functional assay
# [19] = target: IL-18 polypeptide C148 (human) (UniProt Q14116); assay: cell-based or functional assay
# [20] = target: IL-18 polypeptide C160 (human) (UniProt Q14116); assay: cell-based or functional assay
# [21] = target: IL-18 polypeptide C158 (human) (UniProt Q14116); assay: cell-based or functional assay
# [22] = target: IL-18 polypeptide C162 (human) (UniProt Q14116); assay: cell-based or functional assay
# [23] = target: IL-18 polypeptide C146 (SEQ ID NO: 68) (human) (UniProt Q14116); assay: cell-based or functional assay
# [24] = target: IL-18 polypeptide C143 (human) (UniProt Q14116); assay: cell-based or functional assay
# [25] = target: IL-18 polypeptide SEQ ID NO: 52 (E06K, T63A) (human) (UniProt Q14116); assay: cell-based or functional assay
# [26] = target: IL-18 polypeptide SEQ ID NO: 9 (E6K, C38A, K53A, C68A, D98C) (human) (UniProt Q14116); assay: cell-based or functional assay
# [27] = target: IL-18 polypeptide SEQ ID NO: 36 (K53A) (human) (UniProt Q14116); assay: cell-based or functional assay
# [28] = target: IL-18 polypeptide C168 (human) (UniProt Q14116); assay: cell-based or functional assay
# [29] = target: IL-18 polypeptide SEQ ID NO: 60 (E6K, C38Q, K53A) (human) (UniProt Q14116); assay: cell-based or functional assay
# [30] = target: IL-18 polypeptide C147 (human) (UniProt Q14116); assay: cell-based or functional assay
# [31] = target: IL-18 polypeptide C151 (human) (UniProt Q14116); assay: cell-based or functional assay
# [32] = target: IL-18 polypeptide SEQ ID NO: 53 (K53A, T63A) (human) (UniProt Q14116); assay: cell-based or functional assay
# [33] = target: IL-18 polypeptide SEQ ID NO: 59 (E6K, C38A, K53A) (human) (UniProt Q14116); assay: cell-based or functional assay
# [34] = target: IL-18 polypeptide SEQ ID NO: 48 (C38S, C68S, C76S, C127S, K70C) (human) (UniProt Q14116); assay: cell-based or functional assay
# [35] = target: IL-18 polypeptide SEQ ID NO: 43 (E06K, K53A, S55A, Y01G) (human) (UniProt Q14116); assay: cell-based or functional assay
# [36] = target: IL-18 polypeptide C163 (human) (UniProt Q14116); assay: cell-based or functional assay
# [37] = target: IL-18 polypeptide SEQ ID NO: 47 (C38S, C68S, C76S, C127S) (human) (UniProt Q14116); assay: cell-based or functional assay
# [38] = target: IL-18 polypeptide SEQ ID NO: 51 (T63A) (human) (UniProt Q14116); assay: cell-based or functional assay
# [39] = target: IL-18 polypeptide SEQ ID NO: 62 (E6K, C38A, K53A, C127A) (human) (UniProt Q14116); assay: cell-based or functional assay
# [40] = target: IL-18 polypeptide C152 (human) (UniProt Q14116); assay: cell-based or functional assay
# [41] = target: IL-18 polypeptide SEQ ID NO: 46 (E06K, K53A, S55A, M51G) (human) (UniProt Q14116); assay: cell-based or functional assay
# [42] = target: IL-18 polypeptide C166 (human) (UniProt Q14116); assay: cell-based or functional assay
# [43] = target: IL-18 polypeptide C149 (human) (UniProt Q14116); assay: cell-based or functional assay
# [44] = target: IL-18 polypeptide SEQ ID NO: 55 (K53A, T63A, C38S, C68S, C76S, C127S, K70C) (human) (UniProt Q14116); assay: cell-based or functional assay
# [45] = target: IL-18 polypeptide SEQ ID NO: 39 (E06K, K53A) (human) (UniProt Q14116); assay: cell-based or functional assay
# [46] = target: IL-18 polypeptide SEQ ID NO: 50 (E06K, K53A, T63A) (human) (UniProt Q14116); assay: cell-based or functional assay
# [47] = target: IL-18 polypeptide C145 (human) (UniProt Q14116); assay: cell-based or functional assay
# [48] = target: IL-18 polypeptide C155 (human) (UniProt Q14116); assay: cell-based or functional assay
# [49] = target: IL-18 polypeptide C157 (human) (UniProt Q14116); assay: cell-based or functional assay
# [50] = target: IL-18 polypeptide C144 (human) (UniProt Q14116); assay: cell-based or functional assay
# [51] = target: IL-18 polypeptide SEQ ID NO: 42 (E06K, K53A, S55A, T63A) (human) (UniProt Q14116); assay: cell-based or functional assay
# [52] = target: IL-18 polypeptide SEQ ID NO: 41 (K53A, S55A) (human) (UniProt Q14116); assay: cell-based or functional assay
# [53] = target: IL-18 polypeptide SEQ ID NO: 40 (E06K, S55A) (human) (UniProt Q14116); assay: cell-based or functional assay
# [54] = target: IL-18 polypeptide SEQ ID NO: 37 (S55A) (human) (UniProt Q14116); assay: cell-based or functional assay
# [55] = target: IL-18 polypeptide SEQ ID NO: 57 (E6K, C38S, K53A) (human) (UniProt Q14116); assay: cell-based or functional assay
# [56] = target: IL-18 polypeptide SEQ ID NO: 34 (E06K, K53A, S55A) (human) (UniProt Q14116); assay: cell-based or functional assay
# [57] = target: IL-18 polypeptide C156 (human) (UniProt Q14116); assay: cell-based or functional assay
# [58] = target: IL-18 polypeptide C164 (human) (UniProt Q14116); assay: cell-based or functional assay
# [59] = target: IL-18 polypeptide SEQ ID NO: 35 (Y01G, F02A, E06K, M51G, K53A, D54A, S55A, T63A) (human) (UniProt Q14116); assay: cell-based or functional assay
substance,measurement,setting,value
Fc fused human IL-18 binding protein isoform a (from UniProt O95998 31-194) (Fc fusion),IC50 (read off the curve),[1],1 nM
same,IC50 (read off the curve),[2],0.3 nM
same,IC50 (read off the curve),[3],10 nM
same,IC50 (read off the curve),[4],8 nM
same,IC50 (read off the curve),[5],0.1 nM
same,IC50 of IL-18BP on IFNγ secretion by NK92 cells,[6],2.22 nM
same,IC50 of IL-18BP on IFNγ secretion by NK92 cells,[7],7.79 nM
same,IC50 of IL-18BP on IFNγ secretion by NK92 cells,[8],1.07 nM
same,IC50 of IL-18BP on IFNγ secretion by NK92 cells,[9],21.3 nM
same,IC50 of IL-18BP on IFNγ secretion by NK92 cells,[10],62.4 nM
same,IC50 of IL-18BP on IFNγ secretion by NK92 cells,[11],5.85 nM
same,IC50 of IL-18BP on IFNγ secretion by NK92 cells,[12],1.81 nM
same,IC50 of IL-18BP on IFNγ secretion by NK92 cells,[13],1.47 nM
same,IC50 of IL-18BP on IFNγ secretion by NK92 cells,[14],3.71 nM
same,IC50 of IL-18BP on IFNγ secretion by NK92 cells,[15],0.809 nM
same,IC50 of IL-18BP on IFNγ secretion by NK92 cells,[16],396 nM
same,IC50 of IL-18BP on IFNγ secretion by NK92 cells,[17],23.5 nM
same,IC50 of IL-18BP on IFNγ secretion by NK92 cells,[18],0.885 nM
same,IC50 of IL-18BP on IFNγ secretion by NK92 cells,[19],5.05 nM
same,IC50 of IL-18BP on IFNγ secretion by NK92 cells,[20],3.18 nM
same,IC50 of IL-18BP on IFNγ secretion by NK92 cells,[21],3.98 nM
same,IC50 of IL-18BP on IFNγ secretion by NK92 cells,[22],7.29 nM
same,IC50 of IL-18BP on IFNγ secretion by NK92 cells,[23],733 nM
same,IC50 of IL-18BP on IFNγ secretion by NK92 cells,[24],1.62 nM
same,IC50 of IL-18BP on IFNγ secretion by NK92 cells,[25],47.1 nM
same,IC50 of IL-18BP on IFNγ secretion by NK92 cells,[26],961 nM
same,IC50 of IL-18BP on IFNγ secretion by NK92 cells,[27],27.3 nM
same,IC50 of IL-18BP on IFNγ secretion by NK92 cells,[28],0.176 nM
same,IC50 of IL-18BP on IFNγ secretion by NK92 cells,[29],780 nM
same,IC50 of IL-18BP on IFNγ secretion by NK92 cells,[30],47.6 nM
same,IC50 of IL-18BP on IFNγ secretion by NK92 cells,[31],3.62 nM
same,IC50 of IL-18BP on IFNγ secretion by NK92 cells,[32],18.2 nM
same,IC50 of IL-18BP on IFNγ secretion by NK92 cells,[33],654 nM
same,IC50 of IL-18BP on IFNγ secretion by NK92 cells,[34],0.114 nM
same,IC50 of IL-18BP on IFNγ secretion by NK92 cells,[35],27.8 nM
same,IC50 of IL-18BP on IFNγ secretion by NK92 cells,[36],0.823 nM
same,IC50 of IL-18BP on IFNγ secretion by NK92 cells,[37],0.444 nM
same,IC50 of IL-18BP on IFNγ secretion by NK92 cells,[38],0.239 nM
same,IC50 of IL-18BP on IFNγ secretion by NK92 cells,[39],284 nM
same,IC50 of IL-18BP on IFNγ secretion by NK92 cells,[40],7.85 nM
same,IC50 of IL-18BP on IFNγ secretion by NK92 cells,[41],0.189 nM
same,IC50 of IL-18BP on IFNγ secretion by NK92 cells,[42],0.44 nM
same,IC50 of IL-18BP on IFNγ secretion by NK92 cells,[43],1.17 nM
same,IC50 of IL-18BP on IFNγ secretion by NK92 cells,[44],> 1000 nM
same,IC50 of IL-18BP on IFNγ secretion by NK92 cells,[45],> 703 nM
same,IC50 of IL-18BP on IFNγ secretion by NK92 cells,[46],> 1000 nM
same,IC50 of IL-18BP on IFNγ secretion by NK92 cells,[47],10.2 nM
same,IC50 of IL-18BP on IFNγ secretion by NK92 cells,[48],3.23 nM
same,IC50 of IL-18BP on IFNγ secretion by NK92 cells,[49],6.08 nM
same,IC50 of IL-18BP on IFNγ secretion by NK92 cells,[50],7.52 nM
same,IC50 of IL-18BP on IFNγ secretion by NK92 cells,[51],1060 nM
same,IC50 of IL-18BP on IFNγ secretion by NK92 cells,[52],37.3 nM
same,IC50 of IL-18BP on IFNγ secretion by NK92 cells,[53],15 nM
same,IC50 of IL-18BP on IFNγ secretion by NK92 cells,[54],4.46 nM
same,IC50 of IL-18BP on IFNγ secretion by NK92 cells,[55],146 nM
same,IC50 of IL-18BP on IFNγ secretion by NK92 cells,[56],229 nM
same,IC50 of IL-18BP on IFNγ secretion by NK92 cells,[57],0.681 nM
same,IC50 of IL-18BP on IFNγ secretion by NK92 cells,[58],0.456 nM
same,IC50 of IL-18BP on IFNγ secretion by NK92 cells,[59],> 55 nM
